Experimental data: US20040219635A1 (Dana-Farber, published 2004)
Where a chain is given by its changes, count along the chain named. Ends that are not written are not given here.

What was measured:
[1] = target: T1, pVHL (form used not given) (UniProt P40337 1-213); assay: binding to GST-ODD after phosphatase treatment; unpublished data (16)
T1 construct: also called wild-type pVHL

[2] = target: T2, HA-pVHL (UniProt P40337 1-213); assay: peptide binding assay; unpublished data (16)
T2 construct: In the cells it sits in complexes; also called 35S-HA-pVHL; 35S-labeled pVHL
T2 sequence (P40337 whole entry): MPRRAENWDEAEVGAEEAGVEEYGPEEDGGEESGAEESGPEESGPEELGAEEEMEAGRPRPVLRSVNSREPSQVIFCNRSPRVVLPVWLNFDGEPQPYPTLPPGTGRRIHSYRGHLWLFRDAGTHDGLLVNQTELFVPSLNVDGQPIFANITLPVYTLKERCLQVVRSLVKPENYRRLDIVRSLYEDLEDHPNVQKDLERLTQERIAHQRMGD

[3] = target: T3, immobilized GST-pVHL, elongin B, elongin C complexes (UniProt P40337 54-213; Q15370 1-118; Q15369 17-112); assay: capture of 35S-labeled protein on immobilized GST-VBC
T3 construct: also called GST-VBC; GST-VHL, elongin B, elongin C complexes

[4] = target: T2, HA-pVHL; assay: peptide elution of HIF from anti-HA immunoprecipitates of HA-pVHL (ts20 cells); failure to displace

T1 sequence (P40337 whole entry): as above

B1: GST-HIF1α(530-652) produced in E. coli and preincubated with rabbit reticulocyte lysate (other, UniProt Q16665 530-652, looked up)
chain: EFKLELVEKLFAEDTEAKNPFSTQDTDLDLEMLAPYIPMDDDFQLRSFDQLSPLESSSASPESASPQSTVTVFQQTQIQEPTANATTTTATTDELKTVTKDRMEDIKILIASPSPTHIHKETT
modifications: modified by a factor in reticulocyte lysate; later examples identify the modification as hydroxylation of Pro 564
notes: range 530-652; Incubated with rabbit reticulocyte lysate for 90 min at 30° C; also called GST-ODD; not shown: glutathione S-transferase (GST) fusion partner
binding result [1]: binds

B2: biotinylated HIF (556-575) peptide with Met561 and Met568 replaced with alanine (peptide, UniProt Q16665 556-575, looked up)
peptide: DLDLEALAPYIPADDDFQLR
modifications: also: biotinylated (site not given here)
notes: Made for the mass spectrometry experiments
binding result [2]: binds

B3: Leu562Ala Gal4-HA-HIF1α(530-652) (other)
chain: B1 chain with L33A
notes: range 530-652; also called Gal4-ODD Leu562Ala; not shown: Gal4 portion
binding result [3]: no binding

B4: Pro564Ala Gal4-HA-HIF1α(530-652) (other)
chain: B1 chain with P35A
notes: range 530-652; also called Gal4-ODD Pro564Ala; not shown: Gal4 portion
binding result [3]: no binding

DLDLEMLAAYIPMDDDFQLR (peptide, UniProt Q16665 556-575, looked up, also: biotinylated (site not given here)) [biotinylated HIF1α(556-575) Pro564Ala peptide]
binding result [4]: no binding (tested: 7 µg of peptide in 65 µl of PBS)
